Assay [1] concerns the target T1, recombinant hMCAM-His (human, UniProt P43121 24-559).
T1 construct: not shown: His tag
T1 chain: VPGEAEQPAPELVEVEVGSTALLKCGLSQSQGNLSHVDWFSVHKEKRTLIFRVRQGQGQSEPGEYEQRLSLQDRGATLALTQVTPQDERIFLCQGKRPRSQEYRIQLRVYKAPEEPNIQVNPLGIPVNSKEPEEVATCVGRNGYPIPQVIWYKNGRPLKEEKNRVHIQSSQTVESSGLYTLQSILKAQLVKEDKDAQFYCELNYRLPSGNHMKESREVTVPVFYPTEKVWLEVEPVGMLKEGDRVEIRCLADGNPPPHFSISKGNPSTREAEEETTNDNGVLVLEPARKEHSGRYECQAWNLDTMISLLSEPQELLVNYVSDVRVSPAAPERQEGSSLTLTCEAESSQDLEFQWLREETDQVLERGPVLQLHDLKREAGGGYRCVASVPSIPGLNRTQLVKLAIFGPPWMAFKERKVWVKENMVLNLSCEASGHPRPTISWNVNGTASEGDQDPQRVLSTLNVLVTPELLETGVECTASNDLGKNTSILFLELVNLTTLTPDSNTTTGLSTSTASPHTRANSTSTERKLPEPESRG
Description: ForteBio Octet Red, hMCAM-His analyte; Forte column 1; vs rodent 2107. How it is done: (§1) The affinities were measured using the ForteBio Octet Red. Anti-human Fc sensors were used to capture the humanized antibodies, and several concentrations of hMCAMHis analyte were used to determine the affinity using a 1:1 fitting model.

Assay [2] has as its target T1, recombinant hMCAM-His. Description: competitive ELISA on hMCAM-His, competitor biotinylated rodent or chimeric 2107; vs rodent 2107. As to the method: (§2) ELISA plates were coated with recombinant hMCAM-His, and blocked with casein buffer to prevent non-specific binding. Biotinylated rodent or chimeric antibody was added at a subsaturating concentration, in the presence or absence of 3× increasing concentrations of unlabeled competitor (humanized antibody, rodent, or chimeric). After washing to remove unbound antibody, streptavidin HRP was added to allow detection of the biotinylated antibody. The ELISA was developed with TMB substrate and the OD450 was measured. The IC50 of the unlabeled competitor was determined using the GraphPad Prism5 software.

Assay [3] concerns the target T2, human MCAM (melanoma cell adhesion molecule) expressed on transfected CHO cells (human, UniProt P43121 24-646).
T2 construct: also called hMCAM; CD146
T2 chain: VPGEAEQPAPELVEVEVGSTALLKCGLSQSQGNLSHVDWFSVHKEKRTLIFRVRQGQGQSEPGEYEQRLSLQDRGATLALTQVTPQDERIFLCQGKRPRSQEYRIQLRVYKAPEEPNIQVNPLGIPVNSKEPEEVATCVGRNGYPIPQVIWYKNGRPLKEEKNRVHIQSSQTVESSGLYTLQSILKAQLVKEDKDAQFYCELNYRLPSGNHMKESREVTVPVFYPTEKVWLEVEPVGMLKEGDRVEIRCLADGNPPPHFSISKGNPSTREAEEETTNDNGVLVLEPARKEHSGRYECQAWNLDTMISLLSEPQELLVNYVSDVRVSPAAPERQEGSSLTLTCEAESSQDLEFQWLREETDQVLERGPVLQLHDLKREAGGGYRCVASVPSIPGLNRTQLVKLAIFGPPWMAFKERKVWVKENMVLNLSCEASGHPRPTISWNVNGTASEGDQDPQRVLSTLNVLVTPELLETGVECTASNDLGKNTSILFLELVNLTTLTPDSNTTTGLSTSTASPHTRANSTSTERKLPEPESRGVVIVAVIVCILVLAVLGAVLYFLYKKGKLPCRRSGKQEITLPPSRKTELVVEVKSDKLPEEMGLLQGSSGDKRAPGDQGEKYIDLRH
Description: laminin/FACS on hMCAM CHO cells, competitor laminin 411; Expt#1; vs rodent 2107. As to the method:
(§3) Following incubation for 30-45 minutes, the cells were washed and anti-laminin conjugated to AF650 (NovusBio) was added to detect the bound laminin. The cells were run on a flow cytometer to measure the laminin binding signal.

The target of assay [4] is T2, human MCAM (melanoma cell adhesion …). Description: laminin/FACS on hMCAM CHO cells, competitor laminin 411; Expt#2; reference row with 1.0 is chimeric 2107. How it is done:
as §3

Assay [5] deals with T1, recombinant hMCAM-His. As to the kind of experiment: ForteBio Octet Red, hMCAM-His analyte; Forte column 2; vs rodent 2107. How it is done:
as §1

The target in assay [6] is T2, human MCAM (melanoma cell adhesion …). Description: laminin/FACS on hMCAM CHO cells, competitor laminin 411; Expt#1; vs rodent 2120. As to the method:
as §3

Assay [7] addresses T1, recombinant hMCAM-His. Description: ForteBio Octet Red, hMCAM-His analyte; Forte column 1; vs rodent 2120. As to the method: as §1
Assay [8] concerns the target T2, human MCAM (melanoma cell adhesion …). Description: laminin/FACS on hMCAM CHO cells, competitor laminin 411; Expt#2; vs rodent 2120. How it is done:
as §3

For assay [9], the target named is T1, recombinant hMCAM-His. As to the kind of experiment: competitive ELISA on hMCAM-His, competitor biotinylated rodent or chimeric 2120; vs rodent 2120. As to the method: as §2
Assay [10] deals with T1, recombinant hMCAM-His. As to the kind of experiment: summary of ForteBio, hMCAM-His; vs rodent 2120. How it is done:
as §1

B1: h2107_VH1 + h2107_VL1 (antibody, human IgG1, V domains shown)
VH: QVTLKESGPVLVKPTETLTLTCTVSGFSLTSNGVSWVRQPPGKALEWIAAISSGGSTYYNSAFKSRLTISRDTSKSQVVLTMTNMDPVDTATYYCARHRPFYFDYWGQGTLVTVSS
VL: DIQMTQSPSSLSASVGDRVTITCKGSQNIYKSLAWFQQKPGKVPKLLIYDANSLQTGIPSRFSGSGSGTDFTLTISSLQPEDVATYYCQQYYSGYTFGGGTKVEIK
On to B1, for which, in assay [1], the “fold over rodent (Forte affinity)” value amounted to 12.9 fold. Besides, the “fold over rodent (competitive ELISA)” value in [2] stood at 2.1 fold. Besides, the results for the “fold over rodent (blocking, laminin/FACS)” value in assay [3] and in [4] were 2.3 fold and 2.1 fold, respectively.

B2: h2107_VH6 + h2107_VL1 (antibody, human IgG1, V domains shown)
VH: QVTLKESGPVLVKPTETLTLTCTVSGFSLTSNAVSWVRQPPGKALEWIAAISSGGSTYYNSAFKSRLTISRDTSKSQVVLTMTNMDPVDTATYYCARHRPFYFDYWGQGTLVTVSS
VL: DIQMTQSPSSLSASVGDRVTITCKGSQNIYKSLAWFQQKPGKVPKLLIYDANSLQTGIPSRFSGSGSGTDFTLTISSLQPEDVATYYCQQYYSGYTFGGGTKVEIK
For B2, in assay [1], the “fold over rodent (Forte affinity)” value came to 36.8 fold. Besides, the “fold over rodent (competitive ELISA)” value in assay [2] was 15.3 fold.

B3: h2107_VH5 + h2107_VL1 (antibody, human IgG1, V domains shown)
VH: QVTLKESGPVLVKPTETLTLTCTVSGFSLTSQGVSWVRQPPGKALEWIAAISSGGSTYYNSAFKSRLTISPDTSKSQVVLTMTNMDPVDTATYYCARHRPFYFDYWGQGTLVTVSS
VL: DIQMTQSPSSLSASVGDRVTITCKGSQNIYKSLAWFQQKPGKVPKLLIYDANSLQTGIPSRFSGSGSGTDFTLTISSLQPEDVATYYCQQYYSGYTFGGGTKVEIK
B3: the “fold over rodent (Forte affinity)” value in assay [1] amounted to 28.2 fold. The “fold over rodent (competitive ELISA)” value in assay [2] is 3.7 fold.

B4: h2107_VH5 + h2107_VL3 (antibody, human IgG1, V domains shown)
VH: QVTLKESGPVLVKPTETLTLTCTVSGFSLTSQGVSWVRQPPGKALEWIAAISSGGSTYYNSAFKSRLTISPDTSKSQVVLTMTNMDPVDTATYYCARHRPFYFDYWGQGTLVTVSS
VL: DIQMTQSPSSLSASVGDRVTINCKGSQNIYKSLAWFQQKPGKVPKLLIYDANSLQTGIPSRFSGSGSGTDFTLTISSLQPEDVATYYCQQYYSGYTFGGGTKVEIK
In the case of B4, the “fold over rodent (Forte affinity)” value in [1] was determined as 33.2 fold. The “fold over rodent (competitive ELISA)” value in assay [2] was 3.4 fold.

B5: h2107_VH1 + h2107_VL3 (antibody, human IgG1, V domains shown)
VH: QVTLKESGPVLVKPTETLTLTCTVSGFSLTSNGVSWVRQPPGKALEWIAAISSGGSTYYNSAFKSRLTISRDTSKSQVVLTMTNMDPVDTATYYCARHRPFYFDYWGQGTLVTVSS
VL: DIQMTQSPSSLSASVGDRVTINCKGSQNIYKSLAWFQQKPGKVPKLLIYDANSLQTGIPSRFSGSGSGTDFTLTISSLQPEDVATYYCQQYYSGYTFGGGTKVEIK
On to B5, for which, in assay [1], the “fold over rodent (Forte affinity)” value was found to be 16.3 fold. In addition, the “fold over rodent (competitive ELISA)” value in [2] was found to be 2.3 fold. Besides, the figures for the “fold over rodent (blocking, laminin/FACS)” value in assay [3] and in [4] were 2.6 fold and 2 fold, respectively.

B6: h2107_VH5 + h2107_VL2 (antibody, human IgG1, V domains shown)
VH: QVTLKESGPVLVKPTETLTLTCTVSGFSLTSQGVSWVRQPPGKALEWIAAISSGGSTYYNSAFKSRLTISPDTSKSQVVLTMTNMDPVDTATYYCARHRPFYFDYWGQGTLVTVSS
VL: DIQMTQSPSSLSASVGDRVTITCKGSQNIYKSLAWFQLKPGKVPKLLIYDANSLQTGIPSRFSGSGSGTDFTLTISSLQPEDVATYYCQQYYSGYTFGGGTKVEIK
B6: the “fold over rodent (Forte affinity)” value turned out to be 6 fold in assay [5] and 5.9 fold in assay [1]. In addition, the “fold over rodent (competitive ELISA)” value in assay [2] came out at 1.3 fold. Moreover, the results for the “fold over rodent (blocking, laminin/FACS)” value in assay [3] and in [4] were 1.6 fold and 1.5 fold, respectively.

B7: h2107_VH6 + h2107_VL3 (antibody, human IgG1, V domains shown)
VH: QVTLKESGPVLVKPTETLTLTCTVSGFSLTSNAVSWVRQPPGKALEWIAAISSGGSTYYNSAFKSRLTISRDTSKSQVVLTMTNMDPVDTATYYCARHRPFYFDYWGQGTLVTVSS
VL: DIQMTQSPSSLSASVGDRVTINCKGSQNIYKSLAWFQQKPGKVPKLLIYDANSLQTGIPSRFSGSGSGTDFTLTISSLQPEDVATYYCQQYYSGYTFGGGTKVEIK
On to B7, for which the “fold over rodent (Forte affinity)” value in [1] was 22.1 fold. In addition, the “fold over rodent (competitive ELISA)” value in [2] stood at 9.9 fold.

B8: h2120_VH1 + h2120_VL1 (antibody, human IgG1, V domains shown)
VH: QVTLKESGPVLVKPTETLTLTCTVSGFSLTSNGVSWVRQPPGKALEWIAAISSGGTTYYNSAFKSRLTISRDTSKSQVVLTMTNMDPVDTATYYCARRYGYGWYFDFWGQGTLVTVSS
VL: DIQMTQSPSSLSASVGDRVTITCKASQNIYNSLAWYQQKPGKAPKVLIFNANSLQTGIPSRFSGSGSGTDFTLTISSLQPEDFATYYCQQFYSGYTFGQGTKLEIK
B8: the “fold over rodent (blocking, laminin/FACS)” value in assay [6] is 2 fold; in assay [8] it was 3.5 fold. In addition, the “fold over rodent (Forte affinity)” value in assay [7] was 8.8 fold. For the same molecule, in [9], the “fold over rodent (competitive ELISA)” value turned out to be 3.1 fold. Moreover, the “fold reduction in affinity as measured by ForteBio” value (shortened to “fold reduction in affinity”) in [10] is > 5 fold.

B9: h2120_VH4 + h2120_VL3 (antibody, human IgG1, V domains shown)
VH: QVTLKESGPVLVKPTETLTLTCTVSGFSLTSQGVSWVRQPPGKALEWIAAISSGGTTYYNSAFKSRLTISRDTSKSQVVLTMTNMDPVDTATYYCARRYGYGWYFDFWGQGTLVTVSS
VL: DIQMTQSPSSLSASVGDRVTINCKASQNIYNSLAWYQQKPGKAPKVLIFNANSLQTGIPSRFSGSGSGTDFTLTISSLQPEDFATYYCQQFYSGYTFGQGTKLEIK
As to B9, the entries for the “fold over rodent (blocking, laminin/FACS)” value in [6] and in assay [8] were 3.8 fold and 5.6 fold, respectively. Besides, the “fold over rodent (Forte affinity)” value in assay [7] was determined as 17.4 fold. Besides, the “fold over rodent (competitive ELISA)” value in assay [9] came to 5 fold. Also, in assay [10], the “fold reduction in affinity” value was > 5 fold.

B10: h2120_VH1 + h2120_VL2 (antibody, human IgG1, V domains shown)
VH: QVTLKESGPVLVKPTETLTLTCTVSGFSLTSNGVSWVRQPPGKALEWIAAISSGGTTYYNSAFKSRLTISRDTSKSQVVLTMTNMDPVDTATYYCARRYGYGWYFDFWGQGTLVTVSS
VL: DIQMTQSPSSLSASVGDRVTITCKASQNIYNSLAWYQQKPGKAPKVLIFNANSLQTGVPSRFSGSGSGTDFTLTISSLQPEDFATYYCQQFYSGYTFGQGTKLEIK
Consider B10, for which the “fold over rodent (blocking, laminin/FACS)” value is 4.6 fold in [6] and 12.6 fold in assay [8]. Also, the “fold over rodent (Forte affinity)” value in assay [7] amounted to 10.8 fold. For the same molecule, the “fold over rodent (competitive ELISA)” value in [9] stood at 3.1 fold. The “fold reduction in affinity” value in assay [10] was > 5 fold.

The values are drawn from patent US20150239980A1 (NEOTOPE BOSCIENCES, published 2015).
